{"source": "paper PMC12056058", "about": "(Nature Communications, 2025)", "molecules": {"B1": {"name": "Thr34Asp Fis1, cytosolic domain, tag-free (domain or fragment, human)", "chain": "MEAVLNELVSVEDLLKFEKKFQSEKAAGSVSKSDQFEYAWCLVRSKYNDDIRKGIVLLEELLPKGSKEEQRDYVFYLAVGNYRLKEYEKALKYVRGLLQTEPQNNQAKELERLIDKAMKKDGL", "notes": "Mitochondrial fission protein 1 (Fis1), human, cytosolic domain; also called T34D; phosphorylation mimic-mutant; source: E. coli BL21 (DE3), purified (Ni-NTA, HRV 3C cleavage, reverse Ni-NTA); not shown: His6, C-terminal, cleaved"}, "B2": {"name": "Thr34Glu Fis1, cytosolic domain, tag-free (domain or fragment, human)", "chain": "MEAVLNELVSVEDLLKFEKKFQSEKAAGSVSKSEQFEYAWCLVRSKYNDDIRKGIVLLEELLPKGSKEEQRDYVFYLAVGNYRLKEYEKALKYVRGLLQTEPQNNQAKELERLIDKAMKKDGL", "notes": "Mitochondrial fission protein 1 (Fis1), human, cytosolic domain; also called phosphorylation mimic-mutant; source: E. coli BL21 (DE3), purified (Ni-NTA, HRV 3C cleavage, reverse Ni-NTA); not shown: His6, C-terminal, cleaved"}, "B3": {"name": "Tyr38Glu Fis1, cytosolic domain, tag-free (domain or fragment, human)", "chain": "MEAVLNELVSVEDLLKFEKKFQSEKAAGSVSKSTQFEEAWCLVRSKYNDDIRKGIVLLEELLPKGSKEEQRDYVFYLAVGNYRLKEYEKALKYVRGLLQTEPQNNQAKELERLIDKAMKKDGL", "notes": "Mitochondrial fission protein 1 (Fis1), human, cytosolic domain; also called Y38E; phosphorylation mimic-mutant; source: E. coli BL21 (DE3), purified (Ni-NTA, HRV 3C cleavage, reverse Ni-NTA); not shown: His6, C-terminal, cleaved"}}, "key": {"[1]": {"target": "T1, Fis1 (mitochondrial fission protein 1), cytosolic domain (Homo sapiens, UniProt Q9Y3D6, T34D)", "T1 construct": "cytosolic domain, C-terminal HRV 3C site and His6 tag (cut off), codon optimized, E. coli BL21(DE3); first 30 residues disordered in mutant crystals", "T1 sequence (Q9Y3D6 1-123 T34D)": "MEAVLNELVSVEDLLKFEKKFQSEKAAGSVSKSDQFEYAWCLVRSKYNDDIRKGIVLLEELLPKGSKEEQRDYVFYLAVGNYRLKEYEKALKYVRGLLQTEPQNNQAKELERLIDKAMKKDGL", "experiment": "CPM thiol fluorescence competition", "format": "binding", "settings": "read-out: apparent IC50"}, "[2]": {"target": "the molecule itself", "experiment": "crystal structure; tag-free Fis1 protein/mutant at 8 mg/ml, sitting drop; data at 100 K, SSRL BL12-2; molecular replacement with PDB 1NZN"}}, "data": [{"molecule": "CN(CCCN1c2ccccc2Sc2ccccc21)C(=O)CCl", "note": "[SP11, N-(3-(10H-phenothiazin-10-yl)propyl)-2-chloro-N-methylacetamide]", "values": [{"measurement": "IC50", "setting": "[1]", "value": 9.4, "unit": "µM"}]}, {"molecule": "C=CC(=O)N(C)CCCN1c2ccccc2Sc2ccccc21", "note": "[SP22, N-(3-(10H-phenothiazin-10-yl)propyl)-N-methylacrylamide]", "values": [{"measurement": "IC50", "setting": "[1]", "value": 15.4, "unit": "µM"}]}, {"molecule": "B1", "values": [{"measurement": "binding result", "setting": "[2]", "value": "binds"}]}, {"molecule": "B2", "values": [{"measurement": "binding result", "setting": "[2]", "value": "binds"}]}, {"molecule": "B3", "values": [{"measurement": "binding result", "setting": "[2]", "value": "binds"}]}]}
